# IntAct's records for PubMed 25910212
# B1: Carbonic anhydrase-related protein (Homo sapiens), P35219 (parent)
# chain: MADLSFIEDTVAFPEKEEDEEEEEEGVEWGYEEGVEWGLVFPDANGEYQSPINLNSREARYDPSLLDVRLSPNYVVCRDCEVTNDGHTIQVILKSKSVLSGGPLPQGHEFELYEVRFHWGRENQRGSEHTVNFKAFPMELHLIHWNSTLFGSIDEAVGKPHGIAIIALFVQIGKEHVGLKAVTEILQDIQYKGKSKTIPCFNPNTLLPDPLLRDYWVYEGSLTIPPCSEGVTWILFRYPLTISQLQIEEFRRLRTHVKGAELVEGCDGILGDNFRPTQPLSDRVIRAAFQ
# partner: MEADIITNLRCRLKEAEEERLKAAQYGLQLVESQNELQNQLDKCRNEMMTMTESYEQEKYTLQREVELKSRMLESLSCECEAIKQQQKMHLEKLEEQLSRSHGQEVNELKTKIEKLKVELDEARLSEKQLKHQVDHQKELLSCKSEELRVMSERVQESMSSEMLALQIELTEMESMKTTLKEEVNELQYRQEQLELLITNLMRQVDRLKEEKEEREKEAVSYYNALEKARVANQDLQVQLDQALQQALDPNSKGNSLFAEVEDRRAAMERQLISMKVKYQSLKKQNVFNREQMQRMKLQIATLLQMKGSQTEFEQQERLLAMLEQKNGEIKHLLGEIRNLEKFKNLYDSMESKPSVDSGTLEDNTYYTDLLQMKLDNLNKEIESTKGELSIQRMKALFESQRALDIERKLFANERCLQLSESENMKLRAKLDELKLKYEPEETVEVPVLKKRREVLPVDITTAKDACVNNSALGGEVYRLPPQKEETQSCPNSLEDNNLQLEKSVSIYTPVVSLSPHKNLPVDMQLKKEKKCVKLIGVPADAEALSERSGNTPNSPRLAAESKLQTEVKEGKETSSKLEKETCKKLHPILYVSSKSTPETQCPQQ
# B2: Pyridoxine-5'-phosphate oxidase (Homo sapiens), Q9NVS9 (parent)
# chain: MTCWLRGVTATFGRPAEWPGYLSHLCGRSAAMDLGPMRKSYRGDREAFEETHLTSLDPVKQFAAWFEEAVQCPDIGEANAMCLATCTRDGKPSARMLLLKGFGKDGFRFFTNFESRKGKELDSNPFASLVFYWEPLNRQVRVEGPVKKLPEEEAECYFHSRPKSSQIGAVVSHQSSVIPDREYLRKKNEELEQLYQDQEVPKPKSWGGYVLYPQVMEFWQGQTNRLHDRIVFRRGLPTGDSPLGPMTHRGEEDWLYERLAP
# B3: Iodotyrosine deiodinase 1 (Homo sapiens), Q6PHW0 (parent)
# chain: MYFLTPILVAILCILVVWIFKNADRSMEKKKGEPRTRAEARPWVDEDLKDSSDLHQAEEDADEWQESEENVEHIPFSHNHYPEKEMVKRSQEFYELLNKRRSVRFISNEQVPMEVIDNVIRTAGTAPSGAHTEPWTFVVVKDPDVKHKIRKIIEEEEEINYMKRMGHRWVTDLKKLRTNWIKEYLDTAPILILIFKQVHGFAANGKKKVHYYNEISVSIACGILLAALQNAGLVTVTTTPLNCGPRLRVLLGRPAHEKLLMLLPVGYPSKEATVPDLKRKPLDQIMVTV
# partner: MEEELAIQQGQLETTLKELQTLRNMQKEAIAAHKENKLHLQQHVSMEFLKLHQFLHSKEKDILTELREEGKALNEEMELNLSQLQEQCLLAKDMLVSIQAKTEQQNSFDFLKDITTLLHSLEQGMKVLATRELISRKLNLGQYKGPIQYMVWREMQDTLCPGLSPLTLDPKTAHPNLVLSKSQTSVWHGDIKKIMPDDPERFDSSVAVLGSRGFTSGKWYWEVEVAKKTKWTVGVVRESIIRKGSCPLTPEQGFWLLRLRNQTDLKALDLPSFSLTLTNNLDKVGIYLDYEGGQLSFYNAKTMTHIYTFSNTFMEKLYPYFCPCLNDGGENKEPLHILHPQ
# Variants of: B1
# Details: with spdly_human SPDL1, Q96EA4
row,Variant,effect of a mutation on the interaction
1,S100P,disrupting interaction strength

# Variants of: B2
# Details: with AGTRAP
row,Variant,effect of a mutation on the interaction
1,R95H,disrupting interaction strength
2,R95C,disrupting interaction strength
3,R229W,disrupting interaction strength
4,R116Q,with no effect

# Variants of: B2
# Details: with CMTM5, Q96DZ9-2
# CMTM5, Q96DZ9-2, sequence (Q96DZ9 other isoform, or with tags, fused parts or gaps): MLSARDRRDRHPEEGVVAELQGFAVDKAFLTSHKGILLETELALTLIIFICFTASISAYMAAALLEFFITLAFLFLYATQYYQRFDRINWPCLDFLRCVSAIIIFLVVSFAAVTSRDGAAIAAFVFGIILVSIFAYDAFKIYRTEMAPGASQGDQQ
row,Variant,effect of a mutation on the interaction
1,R95H,disrupting interaction strength
2,R95C,disrupting interaction strength
3,R229W,disrupting interaction strength
4,R116Q,with no effect

# Variants of: B3
# Details: with TRIM69, Q86WT6-2
row,Variant,effect of a mutation on the interaction
1,R101W,with no effect
